Measured values published in publication PMC7884425, “HPF1 remodels the active site of PARP1 to enable the serine ADP-ribosylation of histones” (Nature Communications, 2021).
Substitutions are numbered along the chain they refer to.

T1: human HPF1 C285H (human, UniProt Q9NWY4 1-346, C285H)
T1 construct: HPF1, human; not shown: His6, N-terminal, cleaved
T1 sequence (looked up): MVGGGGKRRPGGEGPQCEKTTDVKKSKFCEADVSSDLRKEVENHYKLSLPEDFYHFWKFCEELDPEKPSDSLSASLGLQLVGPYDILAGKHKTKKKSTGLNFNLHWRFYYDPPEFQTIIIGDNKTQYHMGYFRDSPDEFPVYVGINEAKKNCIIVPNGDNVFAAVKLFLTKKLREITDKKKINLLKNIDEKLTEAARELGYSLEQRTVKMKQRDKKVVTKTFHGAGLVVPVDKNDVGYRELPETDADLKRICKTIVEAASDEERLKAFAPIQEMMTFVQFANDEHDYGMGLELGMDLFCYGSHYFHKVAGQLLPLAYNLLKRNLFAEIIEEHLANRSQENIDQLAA

T2: human HPF1 F139S (human, UniProt Q9NWY4 1-346, F139S)
T2 construct: HPF1, human; also called HPF F139S; not shown: His6, N-terminal, cleaved
T2 sequence (looked up): T1 sequence (looked up) with F139S, H285C

T3: human HPF1 F280A (human, UniProt Q9NWY4 1-346, F280A)
T3 construct: HPF1, human; not shown: His6, N-terminal, cleaved
T3 sequence (looked up): T1 sequence (looked up) with F280A, H285C

T4: human HPF1 K307S (human, UniProt Q9NWY4 1-346, K307S)
T4 construct: HPF1, human; not shown: His6, N-terminal, cleaved
T4 sequence (looked up): T1 sequence (looked up) with H285C, K307S

T5: human HPF1 E284A (human, UniProt Q9NWY4 1-346, E284A)
T5 construct: HPF1, human; not shown: His6, N-terminal, cleaved
T5 sequence (looked up): T1 sequence (looked up) with E284A, H285C

T6: human HPF1 R239A (human, UniProt Q9NWY4 1-346, R239A)
T6 construct: HPF1, human; not shown: His6, N-terminal, cleaved
T6 sequence (looked up): T1 sequence (looked up) with R239A, H285C

T7: human HPF1 E138K (human, UniProt Q9NWY4 1-346, E138K)
T7 construct: HPF1, human; not shown: His6, N-terminal, cleaved
T7 sequence (looked up): T1 sequence (looked up) with E138K, H285C

T8: human HPF1 K216E (human, UniProt Q9NWY4 1-346, K216E)
T8 construct: HPF1, human; not shown: His6, N-terminal, cleaved
T8 sequence (looked up): T1 sequence (looked up) with K216E, H285C

B1: human HPF1 (histone PARylation factor 1), wild-type (natural protein, UniProt Q9NWY4 1-346, looked up)
chain: T1 sequence (looked up) with H285C
notes: HPF1 (C4orf27), human; TEV site ENLYFQG between the His tag and the protein; the tag was removed with TEV protease; also called C4orf27; not shown: His6, N-terminal, cleaved
B2: human PARP1-CAT ΔHD (661-678-GSGSGSGG-787-1014) (domain or fragment)
chain: TKSKLPKPVQDLIKMIFDGSGSGSGGKDPIDVNYEKLKTDIKVVDRDSEEAEIIRKYVKNTHATTHNAYDLEVIDIFKIEREGECQRYKPFKQLHNRRLLWHGSRTTNFAGILSQGLRIAPPEAPVTGYMFGKGIYFADMVSKSANYCHTSQGDPIGLILLGEVALGNMYELKHASHISKLPKGKHSVKGLGKTTPDPSANISLDGVDVPLGTGISSGVNDTSLLYNEYIVYDIAQVNLKYLLKLKFNFKTSLW
notes: PARP1, human, catalytic domain, residues 661-678; linker that replaces residues 679-786 (most of the HD subdomain); PARP1, human, catalytic domain (ART), residues 787-1014; also called CAT△HD; not shown: His6, N-terminal, cleaved

Experiments:
Assay in all cases: ITC; HPF1 wild-type or mutant 0.3 or 0.4 mM in the syringe, PARP1 CAT-ΔHD (or full-length CAT) 0.02 mM in the cell; 25 °C; 20 mM Tris-pH 8.0, 150 mM NaCl, 1 mM TCEP, 1 mM MgCl2
Details in all cases: both partners purified
[1] = target: B2
human HPF1 C285H = target: T1, human HPF1 C285H
human HPF1 F139S = target: T2, human HPF1 F139S
human HPF1 F280A = target: T3, human HPF1 F280A
human HPF1 K307S = target: T4, human HPF1 K307S
human HPF1 E284A = target: T5, human HPF1 E284A
[2] = target: B1
human HPF1 R239A = target: T6, human HPF1 R239A
human HPF1 E138K = target: T7, human HPF1 E138K
human HPF1 K216E = target: T8, human HPF1 K216E
[3] = target: B1; remark: listed apart in the source

In the case of B1, the “stoichiometry N” value [1] is reported as 1.

For B2, the Kd (human HPF1 C285H) was 28700 nM, the Kd (human HPF1 F139S) was 2400 nM and the Kd (human HPF1 F280A) was 6000 nM. For the same binder, the Kd (human HPF1 K307S) was 9300 nM, the Kd (human HPF1 E284A) was 300 nM and the Kd [2] was 1500 nM. For the same binder, the Kd (human HPF1 R239A) was 2400 nM, the Kd (human HPF1 E138K) was 1700 nM and the Kd (human HPF1 K216E) was 1400 nM. For the same binder, the Ka [3] was 758000 M⁻¹ and the Kd [3] was roughly 1300 nM.
